This data set deals with the molecule itself. As to the kind of experiment: SEC. (Size exclusion chromatography separates by hydrodynamic size, large species first.)

B1: HutZ (residues 13-150, His tagged) (domain or fragment)
chain: RLEPEIKEFRQERKTLQLATVDAQGRPNVSYAPFVQNQEGYFVLISHIARHARNLEVNPQVSIMMIEDETEAKQLFARKRLTFDAVASMVERDSELWCQVIAQMGERFGEIIDGLSQLQDFMLFRLQPEQGLFVKGFG
notes: also called truncated HutZ; source: E. coli BL21 (DE3), purified (Ni-chelating Sepharose, Source 15Q, Superdex-200)
On to B1, for which the “stoichiometry N” value turned out to be 2.

For orientation: stoichiometry N means the number of molecules, sites or subunits per partner or assembly.

The record behind these values is PMC3472187, “Crystal structure of HutZ, a heme storage protein from Vibrio cholerae: A structural mismatch observed in the region of high sequence conservation” (BMC Structural Biology, 2012).
